{"source": "patent US20080044436A1", "about": "“Method for Screening and Compositions for Treating Cancers” (priority 2004, published 2008)", "key": {"[1]": {"test_system": "p21^CIP1/WAF1 gene", "assay": "RNase protection assay of CDKI transcription in HeLa cells, p21", "type": "cell-based, human", "conditions": "HeLa Tet-off cells, doxycycline removed", "protocol": "All radiolabelled probes specific for the p130, Rb, p107, p53, p57, p27, p21, p19, p18, p14/p15, L32, and GAPDH genes were labelled with [α-^32P]UTP-ribonucleotide (PerkinElmer Life Sciences, Woodbridge, Ontario, CA) in the conditions specified in the “hCC-2 Muti-Probe Template Set” kit (Pharmingen, Mississauga, Ontario, CA). Ribonuclease protection experiments were carried out with the Ribonuclease III Protection kit (Ambion, Austin, Tex.). Ten micrograms of HeLa cell RNA were hybridized with the radiolabelled probe mixture at 56° C. and then digested for 45 min at 30° C. in RNase A/RNase T1 solution diluted 1:1000 in digestion buffer. The samples were separated on a polyacrylamide-6% urea gel."}, "[2]": {"test_system": "cyclin A/CDK2", "assay": "In vitro kinase assay of immunoprecipitated cyclin A/CDK2 (histone H1 substrate)", "type": "biochemical, human", "conditions": "TReP-132 induced for 48 hours in HTO-GFP/TReP-132 cells", "excerpt": "FIG. 9A: Kinase activities of each immunoprecipitated cyclin or CDK were quantified using pRb as substrate to measure cyclin D1/CDK6 activity, or histone H1 to measure cyclin A/CDK2 activity. The levels of phosphorylation of histone H1 or pRb in induced HTO cells (HeLa Tet Off) are expressed in relation to the levels in non-induced HTO cells (corresponding to level 1.0).\nCells were washed twice with cold PBS (Phosphate Buffered Saline), then harvested either in cold RIPA buffer (1×PBS, 1% Nonidet P-40, 0.5% sodium deoxycholate, 0.1% SDS, phosphatase and protease inhibitors) for co-immunoprecipitation analysis, or in lysis buffer (50 mM Tris, pH 8.0, 0.1% IGEPAL (Sigma)) for kinase assays. […] The blots were then visualized with ECL reagent and quantified with SCANWISE and Perfect-IMAGE V-5.3 software (CLARA VISION, France).\nThe kinase activities on histone H1 or Rb protein in the immunoprecipitates were measured as follows: the immunoprecipitates were first washed once with 1 ml of assay buffer (50 mM Tris-HCl, pH 7.4, 10 mM MgCl2, 1 mM dithiothreitol (DTT)), then resuspended in 20 μl of assay buffer containing 1 mg/ml casein (Sigma) and 1 μg of histone H1 or Rb protein (769) (sc-4112) as substrate. […]\nThe reaction was stopped by addition of 15 μl of electrophoresis buffer (3×). […] Phosphorylated Rb and histones were quantified by densitometry."}, "[3]": {"test_system": "ER", "assay": "GST pull-down, TReP-132 and ER", "type": "binding", "conditions": "GST pull-down with 35S-ER", "protocol": "GST-TReP-132 wt was analyzed in terms of the interaction with the ^35[S]-ER, as described previously.\nIn order to evaluate the interaction of TReP-132, Sp1, ER and PR, the wt and mutant GST-TReP-132 fusion proteins were expressed, then immobilized on glutathione-Sepharose as described (Frangioni and Neel, 1993; Monte et al., 1998). The ^35S-[Sp1], ^35S-[ER] and ^35S-[PR-B] proteins were synthesized in vitro using a rabbit reticulocyte lysate and T7 RNA polymerase system as directed by the manufacturer (Promega Corporation, Madison, Wis.). Proteins which bound, then detached from the Sepharose after being heated to boiling in SDS buffer were then separated on a 10% SDS-PAGE gel. The gels were stained with Coomassie blue, dried and autoradiographed."}}}
{"molecule": "TReP-132: Transcriptional Regulating Protein of 132 kDa, polypeptide comprising SEQ ID NO: 2; here expressed in cells from vectors (protein) MGDQQLYKTNHVAHGSENLFYQQPPLGVHSGLNHNYGNAVTGGGMDAPQASPISPHFPQDTRDGLGLPVGSKNLGQMDTSRQGGWGSHAGPGNHVQLRGNLANSNMMWGAPAQAEPTDGYQYTYSQASEIRTQKLTSGVLHKLDSFTQVFANQNLRIQVNNMAQVLHTQSAVMDGAPDSALRQLLSQKPMEPPAPAIPSRYQQVPQQPHPGFTGGLSKPALQVGQHPTQGHLYYDYQQPLAQVPVQGGQPLQAPQMLSQHMQQMQQHQYYPPQQQQQAGQQRISMQEIQTQPQQIRPSQPQPPPQQQQPQQLQLQQRQGSMQIPQYYQPQPMMQHLQEQQQQQMHLQPPSYHRDPHQYTPEQAHTVQLIPLGSMSQYYYQEPQQPYSHPLYQQSHLSQHQQREDSQLKTYSSDRQAQAMLSSHGDLGPPDTGMGDPASSDLTRVSSTLPHRPLLSPSGIHLNNMGPQHQQLSPSAMWPQMHLPDGRAQPGSPESSGQPKGAFGEQFDAKNKLTCSICLKEFKNLPALNGHMRSHGGMRASPNLKQEEGEKVLPPQPQPPLPPPPPPPPPPQLPPEAESLTPMVMPVSVPVKLLPPKPSSQGFTNSTVAAPSARDKPASSMSDDEMPVLEIPRKHQPSVPKAEEPLKTVQEKKKFRHRPEPLFIPPPPSYNPNPAASYSGATLYQSQLRSPRVLGDHLLLDPTHELPPYTPPPMLSPVRQGSGLFSNVLISGHGPGAHPQLPLTPLTPTPRVLLCRSNSIDGSNVTVTPGPGEQTVDVEPRINIGLRFQAEIPELQDISALAQDTHKATLVWKPWPELENHDLQQRVENLLNLCCSSALPGGGTNSEFALHSLFEAKGDVMVALEMLLLRKPVRLKCHPLANYHYAGSDKWTSLERKLFNKALATYSKDFIFVQKMVKSKTVAQCVEYYYTWKKIMRLGRKHRTRLAEIIDDCVTSEEEEELEEEEEEDPEEDRKSTKEEESEVPKSPEPPPVPVLAPTEGPPLQALGQPSGSFICEMPNCGAVFSSRQALNGHARIHGGTNQVTKARGAIPSGKQKPGGTQSGYCSVKSSPSHSTTSGETDPTTIFPCKECGKVFFKIKSRNAHMKTHRQQEEQQRQKAQKAAFAAEMAATIERTTGPVGAPGLLPLDQLSLIKPIKDVDILDDDVVQQLGGVMEEAEVVDTDLLLDDQDSVLLQGDAEL", "values": [{"measurement": "p21 gene transcription", "setting": "[1]", "value": "induction"}, {"measurement": "in vitro kinase activity of cyclin A/CDK2", "setting": "[2]", "value": "reduced"}, {"measurement": "interaction with ER", "setting": "[3]", "value": "interact"}]}
